Assay results from the RNAGym collection of RNA variant scans (doi:10.7554/elife.80360).

B1: CPEB3 Ribozyme (parent)
chain: GGGGGCCACAGCAGAAGCGUUCACGUCGCGGCCCCUGUCAGAUUCUGGUGAAUCUGCGAAUUCUGCUGU

Variants of: B1
Assay: self-cleavage, relative activity (ratio to wild type); higher = more cleavage; co-transcriptional
In the case of GGGGGCCACAGCAGAAGCGUUCACUUCGCGGCCCCUGUCAGCUUCUGGUGAAUCUGCGAAUUCUGCUGU, the self-cleavage is reported as 0.17.
Variant GGGGGCCACAGCAGAAGCGUUCACUUCGCGGCCCCUGUCAGUUUCUGGUGAAUCUGCGAAUUCUGCUGU has a self-cleavage of 0.163.
Work on GGGGGCCACAGCAGAAGCGUUCACCUCGCGGCCCCUGUCAGAUUCAGGUGAAUCUGCGAAUUCUGCUGU yielded a self-cleavage of 0.18.
GGGGGCCACAGCAGAAGCGUUCACCUCGCGGCCCCUGUCAGAUUCGGGUGAAUCUGCGAAUUCUGCUGU showed a self-cleavage of 0.192.
Work on GGGGGCCACAGCAGAAGCGUUCACUUCGCGGCCCCUGUCAGAUUCUGGUGAGUCUGCGAAUUCUGCUGU yielded a self-cleavage of 0.146.
GGGGGCCACAGCAGAAGCGUUCACUUCGCGGCCCCUGUCAGAUUCUGGUGAUUCUGCGAAUUCUGCUGU gave a self-cleavage of 0.199.
Variant GGGGGCCACAGCAGAAGCGUUCACUUCGCGGCCCCUGUCAGAUUCUGGUGACUCUGCGAAUUCUGCUGU has a self-cleavage of 0.246.
Variant GGGGGCCACAGCAGAAGCGUUCACCUCGCGGCCCCUGUCAGAUUCUGGUGAAUCUACGAAUUCUGCUGU has a self-cleavage of 0.143.
In the case of GGGGGCCACAGCAGAAGCGUUCACCUCGCGGCCCCUGUCAGAUUCUGGUGAAUCUGCGAAUCCUGCUGU, the self-cleavage is reported as 0.158.
With GGGGGCCACAGCAGAAGCGUUCACCUCGCGGCCCCUGUCAGAUUCUGGUGAAUCUGCGAAUACUGCUGU the self-cleavage was 0.132.
GGGGGCCACAGCAGAAGCGUUCACCUCGCGGCCCCUGUCAGAUUCUGGUGAAUCUGCGAAUGCUGCUGU gave a self-cleavage of 0.153.
GGGGGCCACAGCAGAAGCGUUCACCUCGCGGCCCCUGUCAGAUUCUGGUGAAUCUGCGAAUUCUGCAGU gave a self-cleavage of 0.129.
For GGGGGCCACAGCAGAAGCGUUCACCUCGCGGCCCCUGUCAGAUUCUGGUGAAUCUGCGAAUUCUGCGGU, the self-cleavage was 0.24.
In the case of GGGGGCCACAGCAGAAGCGUUCACCUCGCGGCCCCUGUCAGAUUCUGGUUAAUCUGCGAAUUCUGCUGU, the self-cleavage is reported as 0.216.
For GGGGGCCACAGCAGAAGCGUUCACCUCGCGGCCCCUGUCAGAUUCUGGUAAAUCUGCGAAUUCUGCUGU, the self-cleavage was 0.186.
Work on GGGGGCCACAGCAGAAGCGUUCACCUCGCGGCCCCUAUCAGAUUCUGGUGAAUCUGCGAAUUCUGCUGU yielded a self-cleavage of 0.171.
Variant GGGGGCCACAGCAGAAGCGUUCACCUCGCGGCCCCUCUCAGAUUCUGGUGAAUCUGCGAAUUCUGCUGU has a self-cleavage of 0.156.
Work on GGGGGCCACAGCAGAAGCGUUCACCUCGCGGCCCCUGUCAGAUUCUGGUGAAUCUGCGAAUUCUGCUAU yielded a self-cleavage of 0.255.
Work on GGGGGCCACAGCAGAAGCGUUCACCUCGCGGCCCCUGUCAGAUUCUGGUGAAUCUGCGAAUUCUGCUCU yielded a self-cleavage of 0.18.
GGGGGCCACAGCAGAAGCGUUCACCUCGCGGCCCCUGUCAGAUUCUGGUGAAUCUGCGAAUUCUGCUUU showed a self-cleavage of 0.21.
Variant GGGGGCCACAGCAGAAGCGUUCACCUCGCGGCCCCUGUCAGAUUCUGGUGAAUCUGCGAAUUCUUCUGU has a self-cleavage of 0.151.
GGGGGCCACAGCAGAAGCGUUCACCUCGCGGCCCCUGUCAGAUUCUGGUGAAUCUGCGAAUUCUCCUGU showed a self-cleavage of 0.18.
GGGGGCCACAGCAGAAGCGUUCACUUCGCGGCCCCUGUCAGAUUCUGGUGUAUCUGCGAAUUCUGCUGU showed a self-cleavage of 0.152.
In the case of GGGGGCCACAGCAGAAGCGUUCACUUCGCGGCCCCUGUCAGAUUCUGGUGGAUCUGCGAAUUCUGCUGU, the self-cleavage is reported as 0.168.
Work on GGGGGCCACAGCAGAAGCGUUCACUUCGCGGCCCCUGUCAGAUUCUGGUGCAUCUGCGAAUUCUGCUGU yielded a self-cleavage of 0.212.
Work on GGGGGCCACAGCAGAAGCGUUCACCUCGCGGCCCCUGUCAGAUUCUAGUGAAUCUGCGAAUUCUGCUGU yielded a self-cleavage of 0.102.
For GGGGGCCACAGCAGAAGCGUUCACCUCGCGGCCCCUGUCAGAUUCUUGUGAAUCUGCGAAUUCUGCUGU, the self-cleavage was 0.213.
With GGGGGCCACAGCAGAAGCGUUCACCUCGCGGCCCCUGUCAGAUUCUCGUGAAUCUGCGAAUUCUGCUGU the self-cleavage was 0.142.
GGGGGCCACAGCAGAAGCGUUCACUUCGCGGCCCCUGUCAGAUUCUGGUGAAUCUGCGAAUUCUGCUGU gave a self-cleavage of 0.172.
In the case of GGGGGCCACAGCAGAAGCGUUCACCUCGCGGCCCCUGUCAGAUUCUGGUGAAUCUGCGAAGUCUGCUGU, the self-cleavage is reported as 0.176.
Work on GGGGGCCACAGCAGAAGCGUUCACCUCGCGGCCCCUGUCAGAUACUGGUGAAUCUGCGAAUUCUGCUGU yielded a self-cleavage of 0.188.
Work on GGGGGCCACAGCAGAAGCGUUCACCUCGCGGCCCCUGUCAGAUUCUGGUGAAUCGGCGAAUUCUGCUGU yielded a self-cleavage of 0.174.
GGGGGCCACAGCAGAAGCGUUCACCUCGCGGCCCCUGUCAGAUUCUGGUGAAUCAGCGAAUUCUGCUGU showed a self-cleavage of 0.107.
GGGGGCCACAGCAGAAGCGUUCACCUCGCGGCCCCUGUCAGAUUCUGGUGAAUCCGCGAAUUCUGCUGU gave a self-cleavage of 0.107.
For GGGGGCCACAGCAGAAGCGUUCACCUCGCGGCCCCUGUCAGAUUCUGGUGAAUCUGCGAAUUCUGAUGU, the self-cleavage was 0.134.
With GGGGGCCACAGCAGAAGCGUUCACCUCGCGGCCCCUGUCAGAUUCUGGUGAAUCUGCGAAUUCUGGUGU the self-cleavage was 0.0932.
In the case of GGGGGCCACAGCAGAAGCGUUCACCUCGCGGCCCCUGUCAGAUUCUGGUGAAUCUGCGAAUUCUGUUGU, the self-cleavage is reported as 0.15.
GGGGGCCACAGCAGAAGCGUUCACCUCGCGGCCCCUGUCAGAUUCUGGAGAAUCUGCGAAUUCUGCUGU showed a self-cleavage of 0.14.
GGGGGCCACAGCAGAAGCGUUCACCUCGCGGCCCCUGUCAGAUUCUGGGGAAUCUGCGAAUUCUGCUGU showed a self-cleavage of 0.11.
With GGGGGCCACAGCAGAAGCGUUCACCUCUCGGCCCCUGUCAGAUUCUGGUGAAUCUGCGAAUUCUGCUGU the self-cleavage was 0.16.
Work on GGGGGCCACAGCAGAAGCGUUCACCUCACGGCCCCUGUCAGAUUCUGGUGAAUCUGCGAAUUCUGCUGU yielded a self-cleavage of 0.14.
Work on GGGGGCCACAGCAGAAGCGUUCACCUCGCCGCCCCUGUCAGAUUCUGGUGAAUCUGCGAAUUCUGCUGU yielded a self-cleavage of 0.171.
Work on GGGGGCCACAGCAGAAGCGUUCACCUCGCUGCCCCUGUCAGAUUCUGGUGAAUCUGCGAAUUCUGCUGU yielded a self-cleavage of 0.193.
For GGGGGCCACAGCAGAAGCGUUCACCUCGCAGCCCCUGUCAGAUUCUGGUGAAUCUGCGAAUUCUGCUGU, the self-cleavage was 0.25.
In the case of GGGGGCCACAGCAGAAGCGUUCACCUCGCGGCCCCUGUCAGACUCUGGUGAAUCUGCGAAUUCUGCUGU, the self-cleavage is reported as 0.164.
In the case of GGGGGCCACAGCAGAAGCGUUCACCUCGCGGCCCCUGUCAGAGUCUGGUGAAUCUGCGAAUUCUGCUGU, the self-cleavage is reported as 0.188.
Work on GGGGGCCACAGCAGAAGCGUUCACCUCGCGGCCCCUGUCAGAUUCUGGUGAAUCUGAGAAUUCUGCUGU yielded a self-cleavage of 0.14.
GGGGGCCACAGCAGAAGCGUUCACCUCGCGGCCCAUGUCAGAUUCUGGUGAAUCUGCGAAUUCUGCUGU gave a self-cleavage of 0.141.
For GGGGGCCACAGCAGAAGCGUUCACCUCGCGGCCCUUGUCAGAUUCUGGUGAAUCUGCGAAUUCUGCUGU, the self-cleavage was 0.177.
GGGGGCCACAGCAGAAGCGUUCACCUCGCGGCCGCUGUCAGAUUCUGGUGAAUCUGCGAAUUCUGCUGU gave a self-cleavage of 0.14.
GGGGGCCACAGCAGAAGCGUUCACCUCGCGGCCCCGGUCAGAUUCUGGUGAAUCUGCGAAUUCUGCUGU gave a self-cleavage of 0.217.
For GGGGGCCACAGCAGAAGCGUUCACCUCGCGGCCCCUGACAGAUUCUGGUGAAUCUGCGAAUUCUGCUGU, the self-cleavage was 0.176.
Variant GGGGGCCACAGCAGAAGCGUUCACCUCGCGGCCCCUGGCAGAUUCUGGUGAAUCUGCGAAUUCUGCUGU has a self-cleavage of 0.187.
With GGGGGCCACAGCAGAAGCGUUCACCUCGCGGCCCCUGCCAGAUUCUGGUGAAUCUGCGAAUUCUGCUGU the self-cleavage was 0.166.
GGGGGCCACAGCAGAAGCGUUCACCUCGCGCCCCCUGUCAGAUUCUGGUGAAUCUGCGAAUUCUGCUGU showed a self-cleavage of 0.143.
In the case of GGGGGCCACAGCAGAAGCGUUCACCUCGCGUCCCCUGUCAGAUUCUGGUGAAUCUGCGAAUUCUGCUGU, the self-cleavage is reported as 0.176.
With GGGGGCCACAGCAGAAGCGUUCACCUCGCGGCCCCUGUCAGAUUCUGGUGAACCUGCGAAUUCUGCUGU the self-cleavage was 0.0815.
For GGGGGCCACAGCAGAAGCGUUCACCUCGCGGCCCCUGUCAGAUUCUGGUGAAGCUGCGAAUUCUGCUGU, the self-cleavage was 0.106.
GGGGGCCACAGCAGAAGCGUUCACUUCGCGGCCCCUGUCAGAUUCUGGUGAAUCUGCGCAUUCUGCUGU showed a self-cleavage of 0.217.
GGGGGCCACAGCAGAAGCGUUCACCUCGCGGCCCCUGUCAGAUUGUGGUGAAUCUGCGAAUUCUGCUGU gave a self-cleavage of 0.147.
GGGGGCCACAGCAGAAGCGUUCACCUCGCGGCCCCUGUCAGAUUUUGGUGAAUCUGCGAAUUCUGCUGU showed a self-cleavage of 0.141.
With GGGGGCCACAGCAGAAGCGUUCACCUCGCGGCCCCUGUCAGAUUCUGGUGAAUCUGCCAAUUCUGCUGU the self-cleavage was 0.234.
GGGGGCCACAGCAGAAGCGUUCACCUCGCGGCCCCUGUCACAUUCUGGUGAAUCUGCGAAUUCUGCUGU showed a self-cleavage of 0.0934.
GGGGGCCACAGCAGAAGCGUUCACCUCGCGGCCCCUGUCAAAUUCUGGUGAAUCUGCGAAUUCUGCUGU showed a self-cleavage of 0.123.
Variant GGGGGCCACAGCAGAAGCGUUCACCUCGCGGCCCCUGUCAGAUUCUGGUGAAUCUGCGAAUUCUGCUGC has a self-cleavage of 0.333.
In the case of GGGGGCCACAGCAGAAGCGUUCACCUCGCGGCCCCUGUGAGAUUCUGGUGAAUCUGCGAAUUCUGCUGU, the self-cleavage is reported as 0.164.
Variant GGGGGCCACAGCAGAAGCGUUCACCUCGCGGCCCCUGUUAGAUUCUGGUGAAUCUGCGAAUUCUGCUGU has a self-cleavage of 0.192.
With GGGGGCCACAGCAGAAGCGUUCACCUCGCGGCCCCUGUAAGAUUCUGGUGAAUCUGCGAAUUCUGCUGU the self-cleavage was 0.197.
With GGGGGCCACAGCAGAAGCGUUCACCUCGCGGCCCCUGUCAGAUUCUGUUGAAUCUGCGAAUUCUGCUGU the self-cleavage was 0.186.
With GGGGGCCACAGCAGAAGCGUUCACCUCGCGGCCCCUGUCAGAUUCUGAUGAAUCUGCGAAUUCUGCUGU the self-cleavage was 0.16.
Work on GGGGGCCACAGCAGAAGCGUUCACCUCGCGGCCCCUGUCAGAUUCUGGUGAAUCUGCGAAUUUUGCUGU yielded a self-cleavage of 0.136.
Work on GGGGGCCACAGCAGAAGCGUUCACUUCGCGGCCCCUGUCCGAUUCUGGUGAAUCUGCGAAUUCUGCUGU yielded a self-cleavage of 0.183.
In the case of GGGGGCCACAGCAGAAGCGUUCACUUCGCGGCCCCUGUCGGAUUCUGGUGAAUCUGCGAAUUCUGCUGU, the self-cleavage is reported as 0.114.
GGGGGCCACAGCAGAAGCGUUCACUUCGCGGCCCCUGUCUGAUUCUGGUGAAUCUGCGAAUUCUGCUGU showed a self-cleavage of 0.208.
GGGGGCCACAGCAGAAGCGUUCACCUCGCGGCCCCUGUCAGAUUCUGGUGAAUCUGCGAAUUCAGCUGU gave a self-cleavage of 0.132.
With GGGGGCCACAGCAGAAGCGUUCACCUCGCGGCCCCUGUCAGAUUCUGGUGAAUGUGCGAAUUCUGCUGU the self-cleavage was 0.162.
GGGGGCCACAGCAGAAGCGUUCACCUCGCGGCCCCUGUCAGAUUCUGGUGAAUAUGCGAAUUCUGCUGU gave a self-cleavage of 0.136.
GGGGGCCACAGCAGAAGCGUUCACCUCGCGGCCCCUGUCAGAUUCUGGUGAAUUUGCGAAUUCUGCUGU showed a self-cleavage of 0.133.
